Measurements from the supplement of paper PMC10201428.
± gives the standard deviation of the averaged measurements.

B1: library; a variant is named by its letters at N, in order (parent)
chain: AATGTTGTTGATGCAACCATAAAGTGATATTTAATAATTATTTATAATCAGCAACTTAACCACAAAACAACCATATATTGATATNTCACAAAACAACCATAANTTGATATTTTTGTGAATCGAGTATTTCAGCAAAACTACTGCAGTAAGAA

Tests used:
[1] = variants of: B1; test: relative integration efficiency (T-LR orientation) vs wild-type transposon end (log2 (normalized fold change)); transposon end mutated: left end; higher = more efficient transposition; conditions: with VchCAST RNA-guided transposition machinery (E. coli BL21(DE3) host, lacZ target)
How it was run: (§1)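 Barcode abundances in input plasmids and in genomic integration junctions were obtained by PCR amplification and Illumina sequencing. These came from E. coli BL21(DE3) co-transformed with a T7-driven effector plasmid and a pUC57 donor carrying 1549 left-end or 1849 right-end transposon variants, then plated with 0.1 mM IPTG at 37°C for 18 h. Relative integration efficiency is the output/input fold change, normalised to reference barcodes and log-transformed.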

[2] = variants of: B1; test: relative integration efficiency (T-RL orientation) vs wild-type transposon end (log2 (normalized fold change)); transposon end mutated: left end; higher = more efficient transposition; conditions: with VchCAST RNA-guided transposition machinery (E. coli BL21(DE3) host, lacZ target)
How it was run: as §1

Variant | relative integration efficiency (log2) [1] | relative integration efficiency (log2) [2]
CG T110A T111A T112A T113A | -0.328 ± 0.56 | -0.587 ± 0.42
CG T45A A46T A47T T48A | 0.244 ± 0.78 | 0.0806 ± 0.061
CG T78G T79G G80T A81C | -3.25 ± 1.3 | -2.44 ± 0.79
CG T48A C49G A50T G51C | -2.64 ± 0.41 | -2.28 ± 0.62
CG T105G G106T | -0.649 ± 0.86 | -1.2 ± 0.72
CG T76G A77C | -0.497 ± 0.94 | -0.785 ± 0.46
CG T86G | 0.0399 ± 0.26 | -0.108 ± 0.045
CG T86C | 0.176 ± 0.013 | -0.261 ± 0.092
CG T86A | 0.731 ± 0.2 | 0.656 ± 0.025
CG T30G T31G T32G A33C | -1.21 ± 0.73 | -1.06 ± 0.5
CG T42G T43G | 0.178 ± 0.27 | -0.123 ± 0.14
CG T57G A58C A59C C60A | -1.48 ± 0.099 | -0.817 ± 0.47
CG T108A A109T | -0.852 ± 0.53 | -0.848 ± 0.47
CG T108G A109C T110G T111G | -2.71 ± 1.1 | -1.63 ± 0.69
GG T82A A83T T84A | -0.904 ± 0.77 | -0.974 ± 0.49
CG T111A | -0.0724 ± 0.42 | -0.134 ± 0.076
CG T111C | -0.338 ± 0.58 | -0.142 ± 0.1
CG T111G | 0.0369 ± 0.43 | -0.195 ± 0.25
GG T31A T111A | -0.483 ± 0.67 | -0.581 ± 0.56
CG T76A A77T | -0.19 ± 0.3 | 0.117 ± 0.012
CG T74G A75C | -2.15 ± 0.86 | -2.21 ± 0.94
CG T31G T32G | -0.16 ± 0.58 | -0.225 ± 0.34
CG T82C | 0.362 ± 0.73 | 0.536 ± 0.29
CG T82G | -0.227 ± 0.47 | -0.597 ± 0.43

Variant | relative integration efficiency (log2) [1] | relative integration efficiency (log2) [2]
CG T30G | -0.765 ± 0.6 | -0.614 ± 0.37
CG T30C | 0.128 ± 0.19 | 0.0623 ± 0.096
CG T30A | 0.497 ± 0.092 | 0.256 ± 0.046
CG T41A T42A | 0.775 ± 0.0053 | 0.864 ± 0.047
CG T31A T32A A33T A34T | 0.0738 ± 0.43 | -0.0923 ± 0.16
CG T56A T57A | -0.409 ± 0.79 | -0.165 ± 0.21
CG T43A A44T | 0.162 ± 0.35 | -0.0354 ± 0.012
CG T111G T112G T113G T114G | -0.443 ± 0.72 | -0.798 ± 0.34
CG T112G T113G | -0.314 ± 0.34 | -0.443 ± 0.12
CG T42C | 0.252 ± 0.45 | 0.37 ± 0.039
CG T42G | 0.0763 ± 0.34 | -0.115 ± 0.2
CG T42A | 0.162 ± 0.27 | 0.471 ± 0.051
TG T76A A77G C87T | 0.266 ± 0.15 | -0.247 ± 0.35
CG T108G A109C | -0.995 ± 1 | -1.16 ± 0.59
CG T105A G106C | -2.53 ± 0.084 | -2.19 ± 0.71
CG T113G T114G G115T T116G | -0.271 ± 0.14 | -0.144 ± 0.053
GG T84A | -0.365 ± 0.032 | -0.231 ± 0.12
AG T31G T32G A33C T86G C87A T111G T112G T113G | -1.26 ± 0.48 | -1.07 ± 0.49
CG T104A T105A | -0.853 ± 0.48 | -0.642 ± 0.47
CG T39C A40T T41G T43G A46T A47G C49T G51T A54C C55A | -4.29 ± 1.2 | -2.86 ± 0.84
CG T32A A77C T86G | -0.351 ± 0.47 | -0.197 ± 0.12
CG T79A | -0.546 ± 0.48 | -0.596 ± 0.38
CG T79G | -0.323 ± 0.18 | -0.702 ± 0.47
CG T79C | -0.488 ± 0.74 | -0.605 ± 0.26

Variant | relative integration efficiency (log2) [1] | relative integration efficiency (log2) [2]
CG T45G A46C A47C T48G | -0.0893 ± 0.7 | -0.487 ± 0.43
CG T79A G80C A81T T82A | -2.46 ± 2 | -1.87 ± 0.95
CG T56G T57G | -1.54 ± 0.34 | -1.59 ± 0.66
CG T112A T113A T114A G115C | -0.584 ± 1 | 0.0734 ± 0.12
CG T38A T42A T45A A47T C49A G51T C52T A54T C55T T56A T57A A59T | -2.39 ± 1.1 | -2.37 ± 0.87
CG T110A | 0.258 ± 0.5 | -0.016 ± 0.099
CG T110G | -0.561 ± 0.13 | -0.516 ± 0.25
CG T110C | -0.691 ± 0.63 | -0.405 ± 0.13
CG T43A A44T T45A A46T | -1.06 ± 1.4 | 0.138 ± 0.031
CG T35A A36T | 0.24 ± 0.31 | 0.1527 ± 0.00087
CG T38A T39A A40T T41A | -0.9 ± 1.3 | 0.168 ± 0.1
CG T86A C87G | 0.622 ± 0.21 | 0.28 ± 0.099
CG T78A T79A | -0.257 ± 0.57 | -0.058 ± 0.35
CG T41A T42A T43A A44T | 0.249 ± 0.14 | 0.195 ± 0.17
CG T30A T31C T32A | -0.303 ± 0.45 | -0.29 ± 0.22
CG T45A A46T | -0.208 ± 0.19 | 0.192 ± 0.024
CG T30A T84A T110A | -0.322 ± 0.51 | -0.403 ± 0.24
CG T74C | -0.976 ± 1.2 | -1.33 ± 0.63
CG T74A | -0.12 ± 0.44 | -0.331 ± 0.2
CG T74G | -1.2 ± 1.2 | -1.35 ± 0.79
CG T108A A109T T110A T111A | -1.21 ± 0.27 | -0.957 ± 0.51
CG T74G A75C T76G A77C | -2.54 ± 1.3 | -1.95 ± 0.99
CG T30A T31C A77C | -0.793 ± 0.14 | -0.48 ± 0.16
CG T39G | 0.304 ± 0.45 | 0.00997 ± 0.055

Variant | relative integration efficiency (log2) [1] | relative integration efficiency (log2) [2]
CG T39C | 0.161 ± 0.47 | 0.0645 ± 0.011
CG T39A | 0.147 ± 0.58 | 0.0624 ± 0.071
GG T86A | 0.153 ± 0.2 | -0.397 ± 0.17
CG T31C | 0.331 ± 0.47 | -0.0756 ± 0.17
CG T31G | -0.35 ± 0.1 | -0.221 ± 0.21
CG T31A | 0.0948 ± 0.84 | -0.128 ± 0.14
CG T45C T48C G51T C52A C55G T57G A59T C60A C61T A62T C63T A66C A67T | -0.402 ± 1 | -5.71 ± 1.3
CG T113G T114G G115T T116G G117T A118C A119C T120G C121A G122T A123C G124T T125G | -0.192 ± 0.1 | -0.0695 ± 0.04
CG T32G A33C | 0.439 ± 0.1 | 0.352 ± 0.14
CG T110G T111G T112G T113G | -1.8 ± 1.2 | -1.4 ± 0.63
CG T41A A44G A46T A50C A53T A54C C55A T56C T57A A59T C60T A62C | -2.59 ± 1.4 | -3.65 ± 0.63
CG T48G C49A A50C G51T | -3.52 ± 2.9 | -1.55 ± 0.54
CG T74A A75T | -0.113 ± 0.66 | -0.22 ± 0.27
CG T113G | 0.451 ± 0.17 | -0.0711 ± 0.12
CG T113A | -0.342 ± 0.22 | -0.277 ± 0.047
CG T113C | 0.405 ± 0.02 | 0.263 ± 0.16
CG T28G A29C T30G T31G | -2.32 ± 0.87 | -1.98 ± 0.8
CG T76G A77C T78G T79G | -3.06 ± 1.4 | -2.26 ± 0.77
CG T42G T43G A44C T45G | 0.391 ± 0.16 | -0.108 ± 0.12
CG T105G | -0.747 ± 0.68 | -1.17 ± 0.51
CG T105A | -1.22 ± 0.29 | -0.835 ± 0.58
CG T105C | -0.552 ± 0.81 | -0.583 ± 0.2
CG T104G T105G G106T A107C | -2.25 ± 1.7 | -2.11 ± 0.66
CG T43G A44C T45G A46C | 0.536 ± 0.48 | -0.504 ± 0.27

Variant | relative integration efficiency (log2) [1] | relative integration efficiency (log2) [2]
CG T32G A33C T86G C87A T112G T113G | -0.849 ± 0.54 | -0.843 ± 0.24
CG T48A C49A A50T C52T A53G C55G T56C T57G A59G C60T C61A A66C A67C | 0.607 ± 0.81 | -5.05 ± 1.9
CG T35C | -0.112 ± 0.24 | -0.0902 ± 0.18
CG T35A | 0.179 ± 0.22 | 0.0694 ± 0.048
CG T35G | 0.136 ± 0.33 | 0.163 ± 0.11
CG T39A A40T T41A T42A | 0.453 ± 0.17 | 0.475 ± 0.019
CG T35A A36T A37T T38A | 0.322 ± 0.34 | 0.354 ± 0.019
CG T32A T86A T112A | 0.255 ± 0.42 | -0.0963 ± 0.053
CG T35G A36C A37C T38G | 0.209 ± 0.74 | 0.203 ± 0.092
AG T84G | -0.223 ± 1.1 | -0.407 ± 0.3
AG T86G | 0.305 ± 0.13 | -0.271 ± 0.068
CG T112A T113A | -0.503 ± 0.53 | -0.318 ± 0.2
AG T30G T31G T32G A33C T84G T86G C87A T110G T111G T112G T113G | -2.2 ± 1.2 | -2.54 ± 0.82
CG T78A T79A G80C A81T | -1.07 ± 0.89 | -1.38 ± 0.59
CG T48C | -0.224 ± 0.18 | -0.219 ± 0.15
CG T48G | 0.0472 ± 0.93 | 0.24 ± 0.2
CG T48A | 0.212 ± 0.68 | 0.162 ± 0.22
CG T86A C87G A88T C89G | 0.1 ± 0.54 | -0.174 ± 0.12
CG T41G T42G T43G A44C | 0.146 ± 0.074 | -0.195 ± 0.099
CG T43G A44C | 0.129 ± 0.046 | -0.0854 ± 0.05
